Assay [1] concerns the target T1, human VLA4-Fc (alpha4-Fc/beta1-Fc heterodimer) (human).
T1 construct: Soluble heterodimer from CHO cells, Protein A purified; also called VLA-Fc
The assay is described as follows: ELISA, VLA4-Fc coated, 1 mM MnCl2; from EC50 values; ELISA, VLA4-Fc coated on plate, 1 mM MnCl2 (activated VLA4); fold relative to Q38L-2D-VCAM-1. The method, then: The relative binding affinities of various 2D-VCAM-1 variants to immobilized VLA4-Fc (α4-β1-Fc) heterodimer, relative to a control protein (e.g., Q38L-2D-VCAM-1 or to human 2D-VCAM-1), were deter using a solid-phase ELISA assay. […] The dilution series was transferred into the ELISA plate which was incubated at room temperature for 2 h and subsequently washed with TBS-T. Bound 2D-VCAM protein was detected by incubation with 0.5 ug/ml of biotinylated anti-human VCAM antibody (R&D Systems, Catalog No. BAF809) in TBS-TMC for 1 h at room temperature followed by a TBS-MT (TBS plus 1 mM MnCl2 and 0.02% TWEEN-20) wash and subsequent incubation with 1:2000 dilution of streptavidin-HRP (BD Biosciences, Catalog No. 554066) in TBS-TMC for 30 min at room temperature. […] Fold-improvement in binding was calculated relative to a control protein (e.g., Q38L-2D-VCAM-1 or human 2D-VCAM-1) assayed on the same plate.

Assay [2] addresses T2, human VLA4 (integrin alpha4beta1) on the surface of U937 cells (human, UniProt P13612 34-1032; P05556 21-798).
T2 construct: whole, on cells; Endogenous VLA4 of U937 cells; assay buffer held 1 mM each of CaCl2, MgCl2 and MnCl2; also called cell-surface human VLA4
The assay is described as follows: static cell adhesion assay: U937 cells on immobilized 7D-VCAM-1 in the presence of the soluble polypeptide; blocked ligand: immobilized 7D-VCAM-1 (Example 13). The method, then:
Prior to assaying, the U937 cells were re-suspended in labeling buffer (RPMI 1640 culture media without phenol red, 10% FBS; Invitrogen), then labeled with 0.5 μg/ml Calcein-AM at 37° C. for 30 minutes on a rotator. Subsequently, the cells were washed three times with labeling buffer then resuspended at 5×10^6 cells/ml in assay buffer (HEPES CaMgMn buffer: 50 mM HEPES, 150 mM NaCl, 1 mM CaCl₂, 1 mM MgCl₂, 1 mM MnCl2 pH 7.4).
The test compounds (i.e., the 2D-VCAM-1 variant polypeptides) were diluted in dilution buffer and added to VCAM-1-coated plates. […] Plates were spun down at 280×g for 5 minutes with assay buffer decanted by inversion before measuring fluorescence intensity (excitation=485 nm, emission=530 nm) with LJL Analyst HT 96.384 (Molecular Devices, Sunnyvale, Calif.).
FIG. 5 is a graph showing the cell adhesion index for anti-VLA4-antibody (used as a positive control for maximal inhibition of cell adherence), dilution buffer alone (“no treatment”, a control to show maximal cell adherence to the immobilized VCAM-1), 2D-VCAM-1 valiant Clone 46 (SEQ ID NO:12), Q38L-2D-VCAM-1 polypeptide (SEQ ID NO:10), and human 2D-VCAM-1 (SEQ ID NO:2). The cell adhesion index was calculated as (fluorescence intensity, VCAM-coated well)/(fluorescence intensity, non-CAM-1-coated well). […]

T1 sequence (chain, as listed by the source limits assumed, form in doubt, chain 1 of 2): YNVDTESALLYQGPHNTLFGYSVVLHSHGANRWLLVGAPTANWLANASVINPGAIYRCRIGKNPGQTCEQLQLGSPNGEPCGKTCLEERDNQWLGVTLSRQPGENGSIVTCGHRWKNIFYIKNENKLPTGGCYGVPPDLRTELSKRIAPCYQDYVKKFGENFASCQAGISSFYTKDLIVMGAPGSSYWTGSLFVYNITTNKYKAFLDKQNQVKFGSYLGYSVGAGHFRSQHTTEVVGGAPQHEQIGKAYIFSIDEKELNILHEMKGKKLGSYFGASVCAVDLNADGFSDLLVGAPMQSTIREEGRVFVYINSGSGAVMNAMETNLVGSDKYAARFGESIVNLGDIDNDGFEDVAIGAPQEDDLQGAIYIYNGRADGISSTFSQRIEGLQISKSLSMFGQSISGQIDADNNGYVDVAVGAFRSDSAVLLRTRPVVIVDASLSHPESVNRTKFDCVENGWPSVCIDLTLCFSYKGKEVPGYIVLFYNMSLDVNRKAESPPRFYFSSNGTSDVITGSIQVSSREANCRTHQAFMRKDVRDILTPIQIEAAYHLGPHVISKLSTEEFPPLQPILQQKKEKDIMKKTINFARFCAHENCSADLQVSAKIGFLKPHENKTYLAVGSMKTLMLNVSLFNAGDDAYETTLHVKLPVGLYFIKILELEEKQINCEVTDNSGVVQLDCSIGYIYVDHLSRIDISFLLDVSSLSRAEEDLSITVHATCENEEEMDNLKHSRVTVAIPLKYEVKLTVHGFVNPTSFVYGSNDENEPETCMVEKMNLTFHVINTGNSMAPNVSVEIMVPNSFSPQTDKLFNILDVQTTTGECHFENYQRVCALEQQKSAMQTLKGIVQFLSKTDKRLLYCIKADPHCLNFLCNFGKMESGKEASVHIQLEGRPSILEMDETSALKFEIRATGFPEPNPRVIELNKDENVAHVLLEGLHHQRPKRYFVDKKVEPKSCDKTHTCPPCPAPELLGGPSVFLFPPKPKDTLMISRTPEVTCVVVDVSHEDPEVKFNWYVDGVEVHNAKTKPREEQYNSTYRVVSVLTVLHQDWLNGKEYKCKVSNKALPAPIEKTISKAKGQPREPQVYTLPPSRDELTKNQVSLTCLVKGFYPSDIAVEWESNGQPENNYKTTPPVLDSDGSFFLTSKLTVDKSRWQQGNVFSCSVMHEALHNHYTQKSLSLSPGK
T1 sequence (chain, as listed by the source limits assumed, form in doubt, chain 2 of 2): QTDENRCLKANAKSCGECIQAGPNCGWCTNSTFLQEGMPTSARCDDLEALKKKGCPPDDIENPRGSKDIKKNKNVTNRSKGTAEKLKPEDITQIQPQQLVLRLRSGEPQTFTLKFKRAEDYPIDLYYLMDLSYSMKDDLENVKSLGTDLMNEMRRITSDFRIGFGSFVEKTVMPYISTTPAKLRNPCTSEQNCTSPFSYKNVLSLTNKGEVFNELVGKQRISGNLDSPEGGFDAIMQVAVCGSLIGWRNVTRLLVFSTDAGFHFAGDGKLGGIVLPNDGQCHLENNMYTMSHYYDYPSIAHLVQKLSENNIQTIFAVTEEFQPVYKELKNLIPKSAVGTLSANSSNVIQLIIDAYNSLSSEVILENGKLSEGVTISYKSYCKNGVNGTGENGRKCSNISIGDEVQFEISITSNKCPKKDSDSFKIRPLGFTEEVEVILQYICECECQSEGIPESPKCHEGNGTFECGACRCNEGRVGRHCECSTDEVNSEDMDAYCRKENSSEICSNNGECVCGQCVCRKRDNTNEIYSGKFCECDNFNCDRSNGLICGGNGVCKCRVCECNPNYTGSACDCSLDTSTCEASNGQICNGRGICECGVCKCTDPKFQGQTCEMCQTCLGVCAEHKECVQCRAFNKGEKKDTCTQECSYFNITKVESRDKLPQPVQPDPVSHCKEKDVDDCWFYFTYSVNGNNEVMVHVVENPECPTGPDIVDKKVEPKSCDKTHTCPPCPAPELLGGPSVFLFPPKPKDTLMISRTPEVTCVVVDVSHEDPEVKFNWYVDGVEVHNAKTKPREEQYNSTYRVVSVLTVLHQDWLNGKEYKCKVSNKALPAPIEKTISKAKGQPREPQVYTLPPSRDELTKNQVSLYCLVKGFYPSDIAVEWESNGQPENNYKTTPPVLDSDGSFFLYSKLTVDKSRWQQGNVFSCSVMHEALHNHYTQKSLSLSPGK
T2 sequence (P13612 34-1032, chain 1 of 2): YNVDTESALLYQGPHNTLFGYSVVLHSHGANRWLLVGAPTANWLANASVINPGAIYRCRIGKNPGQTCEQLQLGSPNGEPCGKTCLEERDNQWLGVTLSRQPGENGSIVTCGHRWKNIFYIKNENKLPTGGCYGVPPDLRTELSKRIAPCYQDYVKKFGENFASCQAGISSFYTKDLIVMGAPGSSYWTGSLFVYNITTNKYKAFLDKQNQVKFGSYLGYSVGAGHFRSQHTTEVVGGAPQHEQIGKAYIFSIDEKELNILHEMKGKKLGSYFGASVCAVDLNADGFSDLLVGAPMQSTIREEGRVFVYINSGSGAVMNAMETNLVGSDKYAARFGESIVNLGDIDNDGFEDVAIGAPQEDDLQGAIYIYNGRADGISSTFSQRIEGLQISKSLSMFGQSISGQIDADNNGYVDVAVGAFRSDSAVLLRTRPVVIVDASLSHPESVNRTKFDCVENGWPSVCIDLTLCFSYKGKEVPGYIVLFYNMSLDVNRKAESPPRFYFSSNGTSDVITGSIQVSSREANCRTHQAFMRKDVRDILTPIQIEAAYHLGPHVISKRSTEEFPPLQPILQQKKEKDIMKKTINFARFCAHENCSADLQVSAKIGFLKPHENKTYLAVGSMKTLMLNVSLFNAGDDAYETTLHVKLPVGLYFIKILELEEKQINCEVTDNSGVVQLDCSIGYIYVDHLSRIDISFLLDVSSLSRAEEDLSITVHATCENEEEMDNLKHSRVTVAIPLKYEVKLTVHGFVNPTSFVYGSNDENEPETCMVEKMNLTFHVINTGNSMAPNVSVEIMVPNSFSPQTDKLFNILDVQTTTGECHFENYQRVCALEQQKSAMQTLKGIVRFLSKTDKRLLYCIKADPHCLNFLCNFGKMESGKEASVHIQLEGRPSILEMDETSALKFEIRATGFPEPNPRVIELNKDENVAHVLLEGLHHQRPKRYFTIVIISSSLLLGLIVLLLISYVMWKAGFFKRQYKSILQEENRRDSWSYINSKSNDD
T2 sequence (P05556 21-798, chain 2 of 2): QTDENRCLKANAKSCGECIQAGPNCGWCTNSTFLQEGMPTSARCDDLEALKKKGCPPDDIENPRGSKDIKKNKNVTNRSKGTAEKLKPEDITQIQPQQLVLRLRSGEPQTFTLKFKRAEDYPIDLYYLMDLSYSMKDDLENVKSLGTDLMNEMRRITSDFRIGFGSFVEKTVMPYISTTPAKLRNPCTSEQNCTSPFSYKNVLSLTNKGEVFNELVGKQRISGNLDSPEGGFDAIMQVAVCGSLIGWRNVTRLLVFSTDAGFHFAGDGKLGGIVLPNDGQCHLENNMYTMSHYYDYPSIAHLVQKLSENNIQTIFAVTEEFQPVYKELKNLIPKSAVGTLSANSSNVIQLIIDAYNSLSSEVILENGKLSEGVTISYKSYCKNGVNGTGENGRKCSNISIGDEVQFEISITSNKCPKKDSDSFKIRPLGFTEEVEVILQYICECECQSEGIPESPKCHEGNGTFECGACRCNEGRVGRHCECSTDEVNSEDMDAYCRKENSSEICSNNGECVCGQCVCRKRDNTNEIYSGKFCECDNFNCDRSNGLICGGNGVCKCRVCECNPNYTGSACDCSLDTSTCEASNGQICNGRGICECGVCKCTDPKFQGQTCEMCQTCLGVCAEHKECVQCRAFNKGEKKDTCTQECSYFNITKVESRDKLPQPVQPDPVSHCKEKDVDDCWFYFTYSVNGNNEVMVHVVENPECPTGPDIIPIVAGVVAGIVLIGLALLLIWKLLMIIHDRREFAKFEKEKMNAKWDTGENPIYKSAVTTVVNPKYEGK

B1: 2D-VCAM-1 variant Clone 146 (ligand, not shown: small tags and cut ends)
chain: FKIETTPESRYLAQIGDSVSLTCSTTGCESPLFFWRPLLDSPLNGKVTNEGTTSTLTMNPVSFGNEHSYLCTARCESRSLEKGIQVEIYSFPKDPEIHLSGPLEAGKPITVKCSVADVYPFDRLEIDLLKGDHLMKSQEFLEDADRKSLETKSLEVTFTPVIEDIGKVLVCRAKLHIDEMDSVPTVRQAVKELQVYISP
As for B1, in assay [1], the “fold-improvement in binding relative to Q38L-2D-VCAM-1” value is 37 fold.

B2: Q38L-2D-VCAM-1 (ligand)
chain: FKIETTPESRYLAQIGDSVSLTCSTTGCESPFFSWRTLIDSPLNGKVTNEGTTSTLTMNPVSFGNEHSYLCTATCESRKLEKGIQVEIYSFPKDPEIHLSGPLEAGKPITVKCSVADVYPFDRLEIDLLKGDHLMKSQEFLEDADRKSLETKSLEVTFTPVIEDIGKVLVCRAKLHIDEMDSVPTVRQAVKELQVYISP
notes: also called Q38L 2D-VCAM-1 polypeptide; not shown: His tag
Turning to B2, the binding result in assay [2] is reported as “binds”.

The record behind these values is patent US20120135912A1 (PERSEID THERAPEUTICS, published 2012).
